Results published in PMC9214829.

Target: proteasome regulatory particle (S. cerevisiae) (UniProt P33299)
Assay: co-IP

Chain of UniProt P33299 (P33299 whole entry, looked up): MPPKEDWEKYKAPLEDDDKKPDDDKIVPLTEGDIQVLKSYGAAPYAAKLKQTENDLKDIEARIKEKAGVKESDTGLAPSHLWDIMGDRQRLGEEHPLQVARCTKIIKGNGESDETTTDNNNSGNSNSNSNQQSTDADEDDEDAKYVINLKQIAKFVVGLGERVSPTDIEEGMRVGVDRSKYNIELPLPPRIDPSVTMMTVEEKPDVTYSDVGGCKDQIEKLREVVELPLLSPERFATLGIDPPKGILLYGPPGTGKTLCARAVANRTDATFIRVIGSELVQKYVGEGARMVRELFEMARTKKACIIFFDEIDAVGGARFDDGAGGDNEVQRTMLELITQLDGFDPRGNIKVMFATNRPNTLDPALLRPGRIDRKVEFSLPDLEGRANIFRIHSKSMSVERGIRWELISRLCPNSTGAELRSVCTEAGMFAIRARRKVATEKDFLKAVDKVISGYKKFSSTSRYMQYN

A relative % of RP-bound chaperone in wild type (not4Δ set as 100%) of 20% was found for “Rpn14 (from UniProt P53196 1-417) (natural protein)” in this work.
